Molecular target: T1, JAVL (JAVL_A) (UniProt A0A1U8LLK1 1-170)
T1 sequence: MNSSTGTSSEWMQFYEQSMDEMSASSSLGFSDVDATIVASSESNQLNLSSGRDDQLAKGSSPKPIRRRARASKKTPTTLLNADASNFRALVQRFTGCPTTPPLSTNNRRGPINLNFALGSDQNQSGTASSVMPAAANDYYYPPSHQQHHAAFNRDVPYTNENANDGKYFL
Assay: EMSA; EMSA: 30 °C for 30 min, then 5% native PAGE in Tris/borate/EDTA, 10 V/cm, 4 °C; 10x and 100x cold competitor; binding buffer, salt and pH not stated
Conditions: protein: recombinant; tags: His (pET32a); label: Cy5; blunt (duplex implied, only one strand printed)

B1: AOS promoter G-box probe (dsDNA)
DNA 1: TTATGGCTGTAAAAACGTGCGAATTCATGGAG
DNA 2: CTCCATGAATTCGCACGTTTTTACAGCCATAA
B1: binds.

B2: GoPGF promoter G-box probe (dsDNA)
DNA 1: AACAGGAGATTTCCACGTGATAATGATGTCAA
DNA 2: TTGACATCATTATCACGTGGAAATCTCCTGTT
B2: binds.

— publication PMC11321651, “Regulation of Glandular Size and Phytoalexin Biosynthesis by a Negative Feedback Loop in Cotton”
